# Data: patent US20220298218A1 (ANTAG THERAPEUTICS, published 2022)
# Like-named read-outs stand apart in the source and are kept apart here. Where no end group is shown, it is not given here. The star is where a group is joined. C16 diacid = O=C(O)CCCCCCCCCCCCCCC(=O)*
# T1: human GIP receptor (human, UniProt P48546 22-466)
# T1 sequence (looked up): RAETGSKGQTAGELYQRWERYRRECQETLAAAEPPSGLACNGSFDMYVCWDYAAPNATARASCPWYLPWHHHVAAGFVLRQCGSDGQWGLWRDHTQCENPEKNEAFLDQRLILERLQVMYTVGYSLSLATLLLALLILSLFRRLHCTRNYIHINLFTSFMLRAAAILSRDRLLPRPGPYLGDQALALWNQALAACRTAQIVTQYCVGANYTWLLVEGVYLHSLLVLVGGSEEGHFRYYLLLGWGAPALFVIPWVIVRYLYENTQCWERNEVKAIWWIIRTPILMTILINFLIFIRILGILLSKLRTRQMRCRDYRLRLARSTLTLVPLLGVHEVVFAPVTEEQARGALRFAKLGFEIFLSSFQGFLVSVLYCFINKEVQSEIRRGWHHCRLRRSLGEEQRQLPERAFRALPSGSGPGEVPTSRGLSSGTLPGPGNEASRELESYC
# Key:
# human GIP receptor [1] = target: T1, human GIP receptor; assay: cell-based or functional assay
# human GIP receptor [2] = target: T1, human GIP receptor; assay: cell-based or functional assay; remark: listed apart in the source
Binder,cAMP agonism Emax (human GIP receptor [1]),cAMP antagonism (human GIP receptor [1]) [nM],cAMP antagonism % inhib (human GIP receptor [1]) [%],cAMP antagonism log (human GIP receptor [1]) [log M],cAMP agonism % Emax (human GIP receptor [2]) [%],cAMP antagonism (human GIP receptor [2]) [nM],cAMP antagonism % inhib (human GIP receptor [2]) [%],cAMP antagonism pIC50 (human GIP receptor [2])
EGTFISDYSIAMDKIK(C16 diacid)QQDFVNWLLAQKGK-OH (N-terminus assumed; SMILES CC[C@H](C)[C@H](NC(=O)[C@H](CO)NC(=O)[C@H](Cc1ccc(O)cc1)NC(=O)[C@H](CC(=O)O)NC(=O)[C@H](CO)NC(=O)[C@@H](NC(=O)[C@H](Cc1ccccc1)NC(=O)[C@@H](NC(=O)CNC(=O)[C@@H](N)CCC(=O)O)[C@@H](C)O)[C@@H](C)CC)C(=O)N[C@@H](C)C(=O)N[C@@H](CCSC)C(=O)N[C@@H](CC(=O)O)C(=O)N[C@@H](CCCCN)C(=O)N[C@H](C(=O)N[C@@H](CCCCNC(=O)CCCCCCCCCCCCCCC(=O)O)C(=O)N[C@@H](CCC(N)=O)C(=O)N[C@@H](CCC(N)=O)C(=O)N[C@@H](CC(=O)O)C(=O)N[C@@H](Cc1ccccc1)C(=O)N[C@H](C(=O)N[C@@H](CC(N)=O)C(=O)N[C@@H](Cc1c[nH]c2ccccc12)C(=O)N[C@@H](CC(C)C)C(=O)N[C@@H](CC(C)C)C(=O)N[C@@H](C)C(=O)N[C@@H](CCC(N)=O)C(=O)N[C@@H](CCCCN)C(=O)NCC(=O)N[C@@H](CCCCN)C(=O)O)C(C)C)[C@@H](C)CC) [AT448],6.2,6,77,-8.2,0,1.36,96,8.9
EGTFISDYSIAMDKIK(C16 diacid)QQDFVNWLLAQKGKK-OH (N-terminus assumed; SMILES CC[C@H](C)[C@H](NC(=O)[C@H](CO)NC(=O)[C@H](Cc1ccc(O)cc1)NC(=O)[C@H](CC(=O)O)NC(=O)[C@H](CO)NC(=O)[C@@H](NC(=O)[C@H](Cc1ccccc1)NC(=O)[C@@H](NC(=O)CNC(=O)[C@@H](N)CCC(=O)O)[C@@H](C)O)[C@@H](C)CC)C(=O)N[C@@H](C)C(=O)N[C@@H](CCSC)C(=O)N[C@@H](CC(=O)O)C(=O)N[C@@H](CCCCN)C(=O)N[C@H](C(=O)N[C@@H](CCCCNC(=O)CCCCCCCCCCCCCCC(=O)O)C(=O)N[C@@H](CCC(N)=O)C(=O)N[C@@H](CCC(N)=O)C(=O)N[C@@H](CC(=O)O)C(=O)N[C@@H](Cc1ccccc1)C(=O)N[C@H](C(=O)N[C@@H](CC(N)=O)C(=O)N[C@@H](Cc1c[nH]c2ccccc12)C(=O)N[C@@H](CC(C)C)C(=O)N[C@@H](CC(C)C)C(=O)N[C@@H](C)C(=O)N[C@@H](CCC(N)=O)C(=O)N[C@@H](CCCCN)C(=O)NCC(=O)N[C@@H](CCCCN)C(=O)N[C@@H](CCCCN)C(=O)O)C(C)C)[C@@H](C)CC) [AT360],20,86,85,-7.1,0,12.6,96,7.9
EGTFISDYSIAMDKIK(C16 diacid)QQDFVNWLLAQKGKKN-OH (N-terminus assumed; SMILES CC[C@H](C)[C@H](NC(=O)[C@H](CO)NC(=O)[C@H](Cc1ccc(O)cc1)NC(=O)[C@H](CC(=O)O)NC(=O)[C@H](CO)NC(=O)[C@@H](NC(=O)[C@H](Cc1ccccc1)NC(=O)[C@@H](NC(=O)CNC(=O)[C@@H](N)CCC(=O)O)[C@@H](C)O)[C@@H](C)CC)C(=O)N[C@@H](C)C(=O)N[C@@H](CCSC)C(=O)N[C@@H](CC(=O)O)C(=O)N[C@@H](CCCCN)C(=O)N[C@H](C(=O)N[C@@H](CCCCNC(=O)CCCCCCCCCCCCCCC(=O)O)C(=O)N[C@@H](CCC(N)=O)C(=O)N[C@@H](CCC(N)=O)C(=O)N[C@@H](CC(=O)O)C(=O)N[C@@H](Cc1ccccc1)C(=O)N[C@H](C(=O)N[C@@H](CC(N)=O)C(=O)N[C@@H](Cc1c[nH]c2ccccc12)C(=O)N[C@@H](CC(C)C)C(=O)N[C@@H](CC(C)C)C(=O)N[C@@H](C)C(=O)N[C@@H](CCC(N)=O)C(=O)N[C@@H](CCCCN)C(=O)NCC(=O)N[C@@H](CCCCN)C(=O)N[C@@H](CCCCN)C(=O)N[C@@H](CC(N)=O)C(=O)O)C(C)C)[C@@H](C)CC) [AT449],8.6,4,95,-8.4,0,5.84,89,8.2
EGTFISDYSIAMDKIK(C16 diacid)QQDFVNWLLAQKGKKNDW-OH (N-terminus assumed; SMILES CC[C@H](C)[C@H](NC(=O)[C@H](CO)NC(=O)[C@H](Cc1ccc(O)cc1)NC(=O)[C@H](CC(=O)O)NC(=O)[C@H](CO)NC(=O)[C@@H](NC(=O)[C@H](Cc1ccccc1)NC(=O)[C@@H](NC(=O)CNC(=O)[C@@H](N)CCC(=O)O)[C@@H](C)O)[C@@H](C)CC)C(=O)N[C@@H](C)C(=O)N[C@@H](CCSC)C(=O)N[C@@H](CC(=O)O)C(=O)N[C@@H](CCCCN)C(=O)N[C@H](C(=O)N[C@@H](CCCCNC(=O)CCCCCCCCCCCCCCC(=O)O)C(=O)N[C@@H](CCC(N)=O)C(=O)N[C@@H](CCC(N)=O)C(=O)N[C@@H](CC(=O)O)C(=O)N[C@@H](Cc1ccccc1)C(=O)N[C@H](C(=O)N[C@@H](CC(N)=O)C(=O)N[C@@H](Cc1c[nH]c2ccccc12)C(=O)N[C@@H](CC(C)C)C(=O)N[C@@H](CC(C)C)C(=O)N[C@@H](C)C(=O)N[C@@H](CCC(N)=O)C(=O)N[C@@H](CCCCN)C(=O)NCC(=O)N[C@@H](CCCCN)C(=O)N[C@@H](CCCCN)C(=O)N[C@@H](CC(N)=O)C(=O)N[C@@H](CC(=O)O)C(=O)N[C@@H](Cc1c[nH]c2ccccc12)C(=O)O)C(C)C)[C@@H](C)CC) [AT361],5,2,100,-8.8,0,3.76,99,8.4
EGTFISDYSIAMDKIK(C16 diacid)QQDFVNWLLAQKG-OH (N-terminus assumed; SMILES CC[C@H](C)[C@H](NC(=O)[C@H](CO)NC(=O)[C@H](Cc1ccc(O)cc1)NC(=O)[C@H](CC(=O)O)NC(=O)[C@H](CO)NC(=O)[C@@H](NC(=O)[C@H](Cc1ccccc1)NC(=O)[C@@H](NC(=O)CNC(=O)[C@@H](N)CCC(=O)O)[C@@H](C)O)[C@@H](C)CC)C(=O)N[C@@H](C)C(=O)N[C@@H](CCSC)C(=O)N[C@@H](CC(=O)O)C(=O)N[C@@H](CCCCN)C(=O)N[C@H](C(=O)N[C@@H](CCCCNC(=O)CCCCCCCCCCCCCCC(=O)O)C(=O)N[C@@H](CCC(N)=O)C(=O)N[C@@H](CCC(N)=O)C(=O)N[C@@H](CC(=O)O)C(=O)N[C@@H](Cc1ccccc1)C(=O)N[C@H](C(=O)N[C@@H](CC(N)=O)C(=O)N[C@@H](Cc1c[nH]c2ccccc12)C(=O)N[C@@H](CC(C)C)C(=O)N[C@@H](CC(C)C)C(=O)N[C@@H](C)C(=O)N[C@@H](CCC(N)=O)C(=O)N[C@@H](CCCCN)C(=O)NCC(=O)O)C(C)C)[C@@H](C)CC) [AT447],4.2,9,82,-8.1,0,11.9,93,7.9
EGTFISDYSIAMDKIK(C16 diacid)QQDFVNWLLAQKGKKND-OH (N-terminus assumed; SMILES CC[C@H](C)[C@H](NC(=O)[C@H](CO)NC(=O)[C@H](Cc1ccc(O)cc1)NC(=O)[C@H](CC(=O)O)NC(=O)[C@H](CO)NC(=O)[C@@H](NC(=O)[C@H](Cc1ccccc1)NC(=O)[C@@H](NC(=O)CNC(=O)[C@@H](N)CCC(=O)O)[C@@H](C)O)[C@@H](C)CC)C(=O)N[C@@H](C)C(=O)N[C@@H](CCSC)C(=O)N[C@@H](CC(=O)O)C(=O)N[C@@H](CCCCN)C(=O)N[C@H](C(=O)N[C@@H](CCCCNC(=O)CCCCCCCCCCCCCCC(=O)O)C(=O)N[C@@H](CCC(N)=O)C(=O)N[C@@H](CCC(N)=O)C(=O)N[C@@H](CC(=O)O)C(=O)N[C@@H](Cc1ccccc1)C(=O)N[C@H](C(=O)N[C@@H](CC(N)=O)C(=O)N[C@@H](Cc1c[nH]c2ccccc12)C(=O)N[C@@H](CC(C)C)C(=O)N[C@@H](CC(C)C)C(=O)N[C@@H](C)C(=O)N[C@@H](CCC(N)=O)C(=O)N[C@@H](CCCCN)C(=O)NCC(=O)N[C@@H](CCCCN)C(=O)N[C@@H](CCCCN)C(=O)N[C@@H](CC(N)=O)C(=O)N[C@@H](CC(=O)O)C(=O)O)C(C)C)[C@@H](C)CC) [AT450],5.8,3,57,-8.5,0,2.29,97,8.6
